Assay results from publication PMC10942606.

Biological target: T1, SpPCNA (recombinant S. pombe PCNA) (S. pombe), Q03392
T1 chain: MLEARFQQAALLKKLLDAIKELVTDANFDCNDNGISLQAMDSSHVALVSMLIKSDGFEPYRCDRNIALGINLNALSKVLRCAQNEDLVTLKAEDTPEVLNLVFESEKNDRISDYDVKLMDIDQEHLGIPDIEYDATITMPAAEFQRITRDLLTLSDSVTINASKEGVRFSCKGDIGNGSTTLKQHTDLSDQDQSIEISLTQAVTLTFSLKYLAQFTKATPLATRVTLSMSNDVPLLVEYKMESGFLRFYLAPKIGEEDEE
Assay: ITC

Binder | Kd | dH | stoichiometry N
QLKLNNFF (modifications not checked) [Pcf1_PIP peptide] | 7.1 µM | -2.9 kCal.M^–1 | 0.97
KNTAQSKPQQKSIMSFFGKK (modifications not checked) [Cdc27_PIP peptide] | 3.5 µM | -4.8 kCal.M^–1 | 0.9
